Reference: the DeepSol protein solubility set

test: soluble on expression in E. coli; label from the status in PepcDB or PDB records

Sequence	soluble on expression in E. coli
MIKFGTGGWRAFIGEEFTKDNVRLVAQALANIIHHEQAANEGFVIGYDRRFLSDKAGRWFAEVLAANGVVVSFIDKFVPTPVVMFKAKAMDCAYSACITASHNPADYNGIKVFIRGGRDADEVITQKIEQQIATLTLQDVKSIDFDQAVNDKLIDIINPMNEFVDSIINFIDIEAIKKANLRVLIDPMFGVAKNALQTVLINGRCDVDVINDGKNPDFGGLMPSPSAATLYRLKHLVKHEGYDIGIGTDGDADRLGIIDEKGNFIHPNEVLILLYYYLLEYKGWKGSVVRNIATTHLLDKIAADHGERCFEVPVGFKHISSQMEADDSLIGGESSGGLTIRGHIKGKDGVFASSLLVEMISVTGKKLSELLTEIYDRYGYAYTAEGDCKFKPAQRDEIYNKVYIEKKLPEFEFDIDKVSYEDGAKVYFKNGGWVIARFSGTEPLLRIFAEMADKDTAERVLQQMKAFLAL	not soluble
MIKFYQYKNCTTCKKAAKFLDEYGVSYEPIDIVQHTPTINEFKTIIANTGVEINKLFNTHGAKYRELDLKNKLQTLSDDEKLELLSSDGMLVKRPLAVMGDKITLGFKEDQYKETWLA	not soluble
MIKHLVAPLVFTSLILTGCQSPQGKFTPEQVAAMQSYGFTESAGDWSLGLSDAILFAKNDYKLLPESQQQIQTMAAKLASTGLTHARMDGHTDNYGEDSYNEGLSLKRANVVADAWAMGGQIPRSNLTTQGLGKKYPIASNKTAQGRAENRRVAVVITTP	not soluble
MIKIDNVKKFYTDKVKIGPLDIEIPKAGFTSLIGPNGAGKSTTLLMIGRLLDMDEGQIQVANMDVSESKSKDLAKVLTILRQENHFVTRLTVRQLVGFGRFPYSKGRLTKEDEVIISKYIDFLDLTNLENRYLDELSGGQRQRAYVAMVLCQETEYVLLDEPLNNLDVARSVQMMEHLRRAANEFGRTILTVMHDINFAAKYSDKICAMKDGQIAAFGTVEEVMDSTLLTDIFETRIEIIKGPYGPIAVY	not soluble
MIKLTVSHHKLTASGHALFAKKGQDIVCAAVSGIIFGALPWFETNSIAVQEDATVPSLSLELVQPTAKLITGLSVVIMQLKTLAHSYPQFISFEDQRKDE	soluble
MIKNGTLKPGDKLLPVHQLAEQFQVGRSAVREALSALRAMGLIEMKQGEGTYVKNFDSSSLTKSLNNRLLMKKEDILNLLEVRKVLEVGAVRVAAAKRTEDNLQNMKHWLDEMAKSIGDEKAGEKADFQFHMGIAESSHNNILLELMNHVSEMIAETIGESRRIILYGEQTTSERLIEEHQVIYDAVLKQDVELAQQAMLDHLTNVEHIVTGKNDINS	not soluble
MILGIDIGGANTKITELHENGEFKVHHLYFPMWKNNDKLAEVLKTYSNDVSHVALVTTAELADSYETKKEGVDNILNAAESAFGSNISVFDSNGNFISLESAKTNNMKVSASNWCGTAKWVSKNIEENCILVDMGSTTTDIIPIVEGKVVAEKTDLERLMNHELLYVGTLRTPISHLGNTISFKGVDTNVSSEYFAITADISVVLEKVTTEEYTCDTPDGKGTDKRSSLVRISKVLCSDLDQISEIDAENIAKNYYELWKELILENVENVAEKYGSKKVVITGLGENILKDALADFEVISVAERYGKDVSLATPSFAVAELLKNELLEHHHHHH	soluble
MILKPIGVVKSPFKTQNDAPRQGRFSDAVSEIAIFDEYADGLHKIENLRHIIVLYWMDKASRDKLRVVPPGETEERGVFTTRSPSRPNPIGLCVVEILEVERNRLKVRWLDALDGSPVIDIKKYSPEIDCVNQLEGQQPLEHHHHHH	soluble
MILLIDNYDSFTFNLEQYLAEFSEVVVKRNDAADLIKIAALADGIVLSPGPGKPSDAGLLEEVVAKFAKEKPLLGICLGHQAIGEVFGGEVKRAAKIRHGKVSTMRQTAGAIFANLPEEMPVMRYHSLIVDKNTLPDVLEVLAIATDDSEVMAMKVKDYPVYGLQFHPESIGTNDGKQMMENFIHIVEGARENGNLTTKSI	not soluble
MILPDRKQILDRELIRRIADTTISGSGHSDGLSEYASIRKAAFAFVESAVLGDQAYSPIENAELAFIVWILAALDENIITARTIIKARDTVEKQLRLVEHYEDLEEFGSRLGIEISVFGEQIGKDHLYRIGVADFATYASRVTGSKYRLSNQIVREGYVYVDEDVMAKVLREAFVSFMFDTLDQIRKEDAIETIKSVLDDLEKIRESYRKAHNVRMIAGKGDASMFPPCMKEIIKNLESGVNVSHMGRLALASFLHKAGYSEDEIVPYFRNAPDFDENITRYQIKHISGEISGTEYTPPKCETMRSNHLCYMDDDPLCHREWMKHPLTYYEVKRRNRKIRLEHHHHHH	soluble
MILTEVSQPTEGIKLATTNVQAFFKIDSLGNGTLYITDSAVIWISSAAGTKGFSVAYPAIVLHAISTDVSVFPSEHIFVMVDQRKSVRRRRRAPVLRTIQEDDEQRGLELAAAELEDEESDDDEEEPALEIRFVPDDKDSLSQIYHQIAVGQEENPEEDDPMYDDEEEEMEEEMGDDGQGQSGQWFTADNIDHMQMSEEGLANMQRIFGRGDQHQHHHNEDESME	not soluble
MILTFNPGKLERQEFFKELINYLWIHDDVTLRKIKSHFTDYSKIDRLLEEYINHGYILRQNKRYSLNLPFLSSLDGLVLDDLVFIDSDSQIYQLLQKRKFVTNLDNPTNHLVFVEETDFERNTLTLSNYFYKLTNGYPLSREQKKLYQLLGDVNSEYALKYMSSFILKFLRKDSVKQKRTVIFIQALELLGYISLNQDTTYRLNAKLDVEALKIYLT	not soluble
MIMAANEKEMRIKIIKDGPYRVTGGVPLLEQVIVTDDDGHTRDLIDIKEYPRREAYILCRCGSSENKPFCDGAHRKVGFDGSETASRTPYLEKAETFEGPDLKLTDVYELCDHSRFCQRSGGIRDLIQKSDDPEARQTAIEEAMICPSGRLVLWDKKTGKPFEKEFDPSIILVHDKQKGCEGPLWVRGGVPIESADGSMYEPRNRVTLCRCGKSENKPYCDGSHWMNSQQKLEFRKKWGLELEHHHHHH	not soluble
MIMKNGIVYFVGAGPGDPGLLTIKGKQALKEADVILYDRLANPKLLEFASPDCQFIYCGKLPNRHFMKQKEINALLVEKALNGLTVVRLKGGDPSVFGRVGEEADALHEHGIRYEMVPGITSGIAAPLYAGIPVTHRDFASSFAMITAHDKSLKGTPNLDWEGLARSVQTLVFYMGVKNLSYICQQLISYGKSPSVPVIVIQWGTWGRQRSVKGTLENIQQKVQEHQITNPAIIVIGDIVNFQTHSWFESKPLIGRHLMVVTHGEDEDPLADKLRDSGADLIEWPKWRTENMPVNEEILRKIGTFEDVFFTSRRAVCEFFRALASQKIDIRQLTAKLSAASEQAKTELEKRGFLVTAIQPDSEKRLVVGSRHAVENMQKHESCSFYITHENVIDDRFTHMIQRTISESPLHMVICPNKLSVQQLINGGEQIGILPEPSASRPPIVCIGDDSAAGIYGFTAVQEQDELLAFIHNQHAEKKLL	not soluble
MINKLDNLNEEVANQIFTVFQNSYKIEAQLIGTLNFPPLLRSAKDIENSKTLFYGFSENECLAAVIEIVLENKQLDINSLTVDPNYFRKGIANKLITYILDKFYFSEAIVETAVVNTPAINLYKKHGFVEFKRWIPSHGIEKLAMSVKATL	not soluble
MINLRWPLNWLKLQSSHGQRLNSQLNLIHSRKWIDFDEQIVGTWKLASSENCPNFIEWFGIEKKKSNYGYYNDLTQAKLNENLVFKMNYNNIVGIPKLFPHMSEKTVRENRHIKTTDDRSLKLTIDRYIDMGKLNVTMELKVNEGKHVCTCKLVYDRVYY	not soluble
MINVLIIDDDAMVAELNRRYVAQIPGFQCCGTASTLEKAKEIIFNSDTPIDLILLDIYMQKENGLDLLPVLHNARCKSDVIVISSAADAATIKDSLHYGVVDYLIKPFQASRFEEALTGWRQKKMALEKHQYYDQAELDQLIHGSSSNEQDPRRLPKGLTPQTLRTLCQWIDAHQDYEFSTDELANEVNISRVSCRKYLIWLVNCHILFTSIHYGVTGRPVYRYRIQAEHYSLLKQYCQ	soluble
MIPAEIAKTAFKSLLPVLERGVVAADRAFSGYIQPRRLRGKLLLQPYVGWGTPREVELTGRVLLPRALAPARKGDPRWRNFHNIVRRLFSREVGGVRVAGTLSDQTVSAVSDSDGYFTLHFTFPRPIAAGWHEVRLQMEDRQEDAARARVQVVGKARFGIISDLDDTVIQSDVTSLPRMLMTSLTGNARTRSPFPGVGALYRALTREGEARNPIFYVSSSPWNFFDLLWQFLDYRRIPLGPLFLRNWGMDLLGGHGGYKHGVIERIFHRYPNLNFVLVGDSGEKDPEIYAEVVRRFPGRVLAVYIRDVTGAERDEGVLRLREEIRKAGADLVLASDSLSAAGHALALGLITPGEYRSVLTSVARTYETLEHHHHHH	soluble
MIPIEIDSGSGFCFGVVNAIRHAEKQLEKSSDKLYCLGDIVHNTLEVERLGKKGLETIDYDAFSRLRGAKVLLRAHGEPPEIYRMAGENGVTIIDATCPVVLRLQNKIKSRYEATRSLGAQVVIYGKRGHAEVNGLVGQTEGTAIVIESEEELDKIDYTRPVILFSQTTKSLEGFGQIIDSISTRMQPGVTFEHHDTICRQVANRIPHIGAFATAHELVFFVAGEKSSNGKVLFGHCLAANPRSIFISSPEVIVPDMLVPLPASIGICGATSTPRWQMEEVASHIKALLLEHHHHHH	soluble
MIQKTISETSPPPMFSDEEILTEDEIEEYLDNLKSKLPSFVIILLKNNLRGKRVTKKQLDKIVERITEVLSKGRRDDKTEELNKKLQTLEQKLDAIMKLTTMAVSTKTSEEIEKIKTNEKIEIENAPIKIKSEEKPEKPVEIEVSKKKETMDTGKKTETEEKVKEIEVPKPVEKTHEKVEETKTKGEIKKEVKKEVKLKKYELPKESPMGGSFMTPIEEEKEYRLNDIPEDAVSMTLVFKWLEFLISRGGMTYLPDILDYYNKIGWISNRVILKLLRFAKNMKITFDEEELRPRDKLSPSDHIVSLLYIEKLAGRPIDSEILEMLEIEIRRIKKWAIELQSI	not soluble
MIRFAVIGTNWITRQFVEAAHESGKYKLTAVYSRSLEQAQHFANDFSVEHLFTSLEAMAESDAIDAVYIASPNSLHFSQTQLFLSHKINVICEKPLASNLAEVDAAIACARENQVVLFEAFKTACLPNFHLLRQALPKVGKLRKVFFNYCQYSSRYQRYLDGENPNTFNPAFSNGSIMDIGFYCLASAVALFGEPKSVQATASLLASGVDAQGVVVMDYGDFSVTLQHSKVSDSVLASEIQGEAGSLVIEKLSECQKVCFVPRGSQMQDLTQPQHINTMLYEAELFATLVDEHLVDHPGLAVSRITAKLLTEIRRQTGVIFPADSVKL	soluble
MIRLTRLDGDVFFVNPDLIEAIEETPDTHIVLSNGRRYLVIEKTDAIVARIISFKSSVMKRALGGHGRKYLRRKMEGSYLPRCPLKPGHNTDLEHHHHHH	soluble
MIRMPLATASLLAIAISLAGCGEGKDKAAAPAPAAAPAAPAAAPAAPAPAPAAAAQTDDAAAKAVVANYANMVSAVFDDAQGAAKKLSTAVDAFLAKPNDETLKAARDAWVAARVPYMQSEVFRFGNTIIDDWEGQVNAWPLDEGLIDYVAKDYQHALGNPGATANIIANTEIQVGEDKVDVKEITSEKLASLNELGGSEANVATGYHAIEFLLWGQDLNGTGPGAGARPASDYLEGAGATGGHNDRRRTYLKAVTDLLVSDLEEMAGNWKAGVADNYRATLEAESGESGLRKMLFGMGSLSLGELAGERMKVALEANSSEDEHDCFSDNTHNSHFYNGKGIRNVYLGEYTRTDGSKVSGPSLSSLVAKVDPATDATLRADLDDTQAKLQAIVDHANKGEHFDQLIGAGNTAGNQVVRDAIAALVKQTGAIEQAAGKLGITDLNPDNADHEF	soluble
MIRQRRRALTPEQQQEMGQQAATRMMTYPPVVMAHTVAVFLSFDGELDTQPLIEQLWRAGKRVYLPVLHPFSAGNLLFLNYHPQSELVMNRLKIHEPKLDVRDVLPLSRLDVLITPLVAFDEYGQRLGMGGGFYDRTLQNWQHYKTQPVGYAHDCQLVEKLPVEEWDIPLPAVVTPSKVWEW	soluble
